The series can be described thus: yeast display, Sf9 membrane polyspecificity reagent, FACS + sequencing; frameworks hold sequencing errors. An outline of the steps: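 Using colony PCR, genes from sorted yeast display clones were amplified, then sequenced on MiSeq at 2 × 250 and filtered by CDR length. The clones had been stained with 10% biotinylated, detergent-solubilized Sf9 membrane reagent for 1 hour at 4 °C and sorted by FACS into low and high (top ~1%) gates on anti-HA and streptavidin fluorescence. Polyreactivity labels come from the gate of origin.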
For “QVQLVESGGGLVQAGGSLRLSCAASGRIFGRYVMGWYRQAPGKERELVAVITGGGTRTYYADSVKGRFTISRDNAKNTVYLQMNSLKPEDTAVYYCAAPYRPDVDYWGQGTQVTVSS”, the “polyreactivity (PSR sort gate)” value was “high polyreactivity”.

Take “QVQLVESGGGLVQAGGSLRLSCAASGRIFGSNTLGWYRQAPGKEREMVAAISRRGGSTYYADSVKGRFTISRDNAKNTVYLQINSLKPEDTAVYYCAAVGTGSSLRYDYWGQGTQVTVSS”: the “polyreactivity (PSR sort gate)” value is “high polyreactivity”.

For “QVQLVESGGGLVQAGGSLRLSCAASGRIFGSYAMGWYRQAPGKEREFVAAISVGSGSTYYADSVKGRFTISRDNAKNTVYLQMNSLKPEDTAVYYCAAENLYIDPRDWYGTWDTGYYWGQGTQVTVSS”, the “polyreactivity (PSR sort gate)” value is listed as “high polyreactivity”.

Turning to “QVQLVESGGGLVQAGGSLRLSCAASGRIFGSYAMGWYRQAPGKERELVAAINWRGGSTFYADSVKGRFTISRDNAKNTVYLQMNSLKPEDTAVYSCARRGYRQSGDYWGQGTQVTVSS”, the “polyreactivity (PSR sort gate)” value is “low polyreactivity”.

Take “QVQLVESGGGLVQAGGSLRLSCAASGRIFGSYAMGWYRQAPGKERELVAAISGDGDSTYYADSVKGRFTISRDNAKNTVYFQMNSLKPEDTAVYYCAAEPNVYFSVFVLFPSDYWGQGTQVTVSS”: the “polyreactivity (PSR sort gate)” value is “low polyreactivity”.

As for “QVQLVESGGGLVQAGGSLRLSCAASGRIFGSYVMGWYRQAPGKERELVAAISFSGDTTYYADSVKGRFTISRDNAKNTVYLQMNSLKPEDTAVYYCAAEFPQGYYAFKYDYWGQGTQVTVSS”, the “polyreactivity (PSR sort gate)” value is listed as “high polyreactivity”.

On to “QVQLVESGGGLVQAGGSLRLSCAASGRIFGTNAMGWYRQAPGKEREMVATITRGGGNTYYADSVKGRFTISRDNAKNTVYLQMNSLKPEDTAVYYCAAKFHRFAWFSHYDYWGQGTQVTVSS”, for which the “polyreactivity (PSR sort gate)” value is “low polyreactivity”.

As to “QVQLVESGGGLVQAGGSLRLSCAASGRIFGTYAMGWYRQAPGKERELGAAITQSGGRTYYADSVKGRFTISRDNAKKTDYLQMKSLKPEDTAVYYCNKVTYRGIGLGYDYWGQGTQVTVSS”, the “polyreactivity (PSR sort gate)” value is listed as “high polyreactivity”.

Take “QVQLVESGGGLVQAGGSLRLSCAASGRIFGTYAMGWYRQAPGKERELVAVITRGGGTKYADSVKGRFTISRDNAKNTVYLQMNSLKPEDTAVYYCAARGRYYGYNYWGQGTQVTVSS”: the “polyreactivity (PSR sort gate)” value is recorded as “high polyreactivity”.

Consider “QVQLVESGGGLVQAGGSLRLSCAASGRIFGTYGMGWYRPAPGKERELVAAISGGGSTNYADSVKGRFTISRDNAKNTVYLQMNSLKPEDTAVYYCATRWYRFYPSDYWGQGTQVTVSS”, for which the “polyreactivity (PSR sort gate)” value is “low polyreactivity”.

In the case of “QVQLVESGGGLVQAGGSLRLSCAASGRIFGTYTMGWYRQAPGKERELVASIRFGGSTYYADSVKGRFTISRDNAKNSVYLQMNSLKPEDTAVYYCNRVYGYNRRYGYWGQGTQVTVSS”, the “polyreactivity (PSR sort gate)” value is given as “high polyreactivity”.

For the sequence “QVQLVESGGGLVQAGGSLRLSCAASGRIFGVNAMGWYRQAPGKERELVAAISRSGGSTYYADSVKGRFTISRDNAKNTVYLQMNSLKPEDTAVYYCAAVVKYRYSAYGGDYWRQGTQVTVSS”, the “polyreactivity (PSR sort gate)” value is reported as “high polyreactivity”.

Regarding “QVQLVESGGGLVQAGGSLRLSCAASGRIFGVNAMGWYRQAPGKERELVAAISWSGGSTYYADSVKGRFTISRDNAKNTVYLQMNSLKPEDTAVYYCAADIWFYTYYLGQGTQVTVSS”, the “polyreactivity (PSR sort gate)” value is reported as “high polyreactivity”.

On to “QVQLVESGGGLVQAGGSLRLSCAASGRIFGVYAMGWYRQAPGKERELVAAIRGDGSTNYADSVKGRFTISRDNAKNTVYLQMNSLKPEDTAVYYCATDLGIYSGSPWGYYYWGQGTQVTVSS”, for which the “polyreactivity (PSR sort gate)” value is recorded as “low polyreactivity”.

With “QVQLVESGGGLVQAGGSLRLSCAASGRIFGVYAMGWYRQAPGKERELVAAISFSGGRTYYADSVKGRFTISRDNAKNTVYLQMNSLKPEDTAVYYCSALGPYDWLWAGDYWGQGTQVTVSS”, the “polyreactivity (PSR sort gate)” value is reported as “low polyreactivity”.

“QVQLVESGGGLVQAGGSLRLSCAASGRIFGVYAMGWYRQAPGKERELVAAISGSTTLTYYADSVKGRFTISRDTAKNTVDLQMNSLKPEDTAVYYCAARSYTPSYKMDYWGQGTKVTVSS”: the “polyreactivity (PSR sort gate)” value is listed as “high polyreactivity”.

Turning to “QVQLVESGGGLVQAGGSLRLSCAASGRIFGVYAMGWYRQAPGKERELVAAITARGGSTYYADSVKGRFTISRDNAKNTVYLQMNSLKPEDTAVYYCATRLYKRTRTITYGYWGQGTQVTVSS”, the “polyreactivity (PSR sort gate)” value is “high polyreactivity”.

“QVQLVESGGGLVQAGGSLRLSCAASGRIFGVYTMGWSRQAPGKERELVAAITSGGNTNYADSVKGRFTISRDNAKNNVYLQMNSLKPEDTAVYYCAARSVRNFYYPGHNYRGQGTQVTVSS”: the “polyreactivity (PSR sort gate)” value is given as “low polyreactivity”.

On to “QVQLVESGGGLVQAGGSLRLSCAASGRIFGWYAMGWYRQAPGKERELVAAIDGGDDSTYYADSVKGRFTISRDNAKNTVYLQMNSLKPEDTAVYYCAVVGYNWGQGSQVTVSS”, for which the “polyreactivity (PSR sort gate)” value was “low polyreactivity”.

Turning to “QVQLVESGGGLVQAGGSLRLSCAASGRIFGWYAMGWYRQAPGKERELVAAITSGSRTSYADSVKGRFTISRDNAKNTVYLQMNSLKPVDTAVYYCNRVSHLDYYWGQGTQVTVSS”, the “polyreactivity (PSR sort gate)” value is recorded as “high polyreactivity”.

Regarding “QVQLVESGGGLVQAGGSLRLSCAASGRIFGWYAMGWYRQAPGKERELVAAITWSGTSTYYAYSVKGRFTISRDNAKNTVYLQMNSLKPEDTAVYYCAAEPGWTMDYWGQGTQVTVSS”, the “polyreactivity (PSR sort gate)” value is “low polyreactivity”.

“QVQLVESGGGLVQAGGSLRLSCAASGRIFGWYAMGWYRQAPGKERELVADIRYRGGSTYYADSVKGRFTISRDNAKNTVYLQMHSLKPEDTAVYYCAALGFVPVPYDYWGQGTQVNVSS”: the “polyreactivity (PSR sort gate)” value is reported as “low polyreactivity”.

For “QVQLVESGGGLVQAGGSLRLSCAASGRIFGWYAMGWYRQAPGKEWELVAAITSGSRTSYADSVKGRFTISRDNAKNTDYLQMNSLNPEDTAVYYCARRSYGIYYRSADDSWGQGTQVTGSS”, the “polyreactivity (PSR sort gate)” value is “high polyreactivity”.

Turning to “QVQLVESGGGLVQAGGSLRLSCAASGRIFGWYTMGWYRQAPGKERELVADINFGGSTYYADSVKGRFTISRDNAKNTVYLQMNSLTPEDTAVYYCNADYSVYIIADEYDYCGQGTQVTVSS”, the “polyreactivity (PSR sort gate)” value is recorded as “low polyreactivity”.

With “QVQLVESGGGLVQAGGSLRLSCAASGRIFGYAMGWYRQAPGKERELVAAITSSGGRTYYADSVKGRFTISRDNVKNTVYLQMNSLKPVDTAVYYCAKKWPVYRSYDYWGQGTQVTVSS”, the “polyreactivity (PSR sort gate)” value is “high polyreactivity”.

Take “QVQLVESGGGLVQAGGSLRLSCAASGRIFGYIAMGWYRPAPGKERELVAAISWSGGSTYYADSVKGRFTISRDNAKNTVYLQMNSLKPEDTAVYYCAADSQDGYFYWGQGTQVTVSS”: the “polyreactivity (PSR sort gate)” value was “low polyreactivity”.

As for “QVQLVESGGGLVQAGGSLRLSCAASGRIFGYNAMGWYRQAPGKERELVAAIRGGGSTYYADSVKGRFTISRDNAKNSVYLQMYSLKPEDSAFYFCAATSYTYVLSPYRGDYWGQGTQVNVSS”, the “polyreactivity (PSR sort gate)” value is recorded as “high polyreactivity”.

In the case of “QVQLVESGGGLVQAGGSLRLSCAASGRIFGYNAMGWYRQAPGKERELVASITSAASTYYADSVKGRFTISRDNAKNTVYLQMNSLKPEDTAVYYCAASAYSALFYWYDYWGQGTQVTVSW”, the “polyreactivity (PSR sort gate)” value is reported as “high polyreactivity”.

On to “QVQLVESGGGLVQAGGSLRLSCAASGRIFGYNAMGWYRQATGNERELVAAITNGGSTNYADSVKGRFTISRDNAKNTVYLQMNSLKPEDTAVYYCAVKWYPPGHDYWGQGTQVTVSS”, for which the “polyreactivity (PSR sort gate)” value is “low polyreactivity”.

On to “QVQLVESGGGLVQAGGSLRLSCAASGRIFGYNTMGWYRQAPGKERELVAAINSGGRTYYADSVKGRFTISRDNAKNTVYLQMNSLKPEDTAVYYCAKPGLYFATFKKYDYWGQGTQVTVSS”, for which the “polyreactivity (PSR sort gate)” value is on record as “high polyreactivity”.
